Results reported in patent US8691772B2, “HSP60, HSP60 peptides and T cell vaccines for immunomodulation” (Yeda Research and Development Co. Ltd., priority 2005, dated 2014).

Legend:
human T cells [1] = assay: In vivo homing assay of human T cells to bone marrow; set-up: species or system NOD/SCID mice; conditions: T cells pretreated (HSP60 1 μg/ml for 1 hr or mAb); 16 hr after injection
Description: In vivo homing assay. Purified human T cells were incubated (1 hr, tissue culture conditions) with HSP60 (1 μg/ml) in tissue culture conditions. The cells were then washed with PBS, and, where indicated, further incubated (30 min, 4° C.) with mouse anti-human CXCR4 mAb (10 μg/3×10^6 cells), anti-human TLR2 or anti-TLR4 mAb (each at 20 μg/ml). The cells were then washed and injected (5×10^6 cells/0.5 ml per mouse) i.v. into the tails of irradiated (375 cGY from a ^60[Co] source), 8-week-old NOD/SCID mice, and the entrance of human T cells into the bone marrow of recipient mice was evaluated as previously described (Kollet et al., 2001). Each tested sample contained 1.5×10^6 cells.

ERK, Pyk2, AKT, MLC = assay: Western blotting of T-cell lysates (phosphorylation) and cell morphology; assay type: cell-based, human
Description: Western blotting of T-cell lysates. T cells were incubated (24 hr, 37° C.) in starvation medium (RPMI medium without serum). Aliquots (5×10^6/sample) of the starved cells were preincubated (for various intervals) with different concentrations of HSP60 prior to exposure to SDF-1α (100 ng/ml, 10 min, 37° C., tissue culture conditions). These reactions were terminated by freezing the plates (−70° C., 10 min). The plates were thawed, and the cells solubilized by incubating (60 min, 4° C.) in lysis buffer [EDTA (0.5 mM), NaCL (150 mM), NaF (10 nM), Tris pH 7.5 (25 mM), Triton X-100 (1%), PMSF (200 pg/ml), and phosphatase inhibitor cocktail (1%)]. Lysates were cleared by centrifugation (30 min, 14×10^3 rpm, 4° C.), and the resulting supernatants analyzed for protein content. Sample buffer was added, the samples were boiled, and equal amounts of proteins were separated by 10% SDS-PAGE and transferred to nitrocellulose membranes. The membranes were blocked with TBST buffer [Tris pH 7.5 (20 mM), NaCl (135 mM) and Tween 20 (0.1%)] containing low-fat milk (5%), and probed with the following mAb in the same buffer: anti-phosphorylated (p) ERK (0.2 μg/ml), anti-total (t) ERK (diluted 1:20,000), anti-pPyk2 (1.5 μg/ml), anti-tPyk2 (0.2 μg/ml), anti-pAKT (diluted 1:1000), anti-tAKT (diluted 1:1000), anti-pMLC (diluted 1:250), and anti-tMLC (diluted 1:1000), anti-pSTAT3 (diluted 1:250), and anti-STAT3 (diluted 1:500). Immunoreactive protein bands were visualized using a horseradish peroxidase-conjugated goat anti-mouse Ab and the enhanced ECL system. Phosphorylation levels of the 3-5 independent experiments were estimated by densitometry, and an average percentage of phosphorylation±SD was calculated as OD of pERK/tERK, or pPyk2/tPyk2, or pAKT/tAKT, pMLC/tMLC, or pSTAT3/tSTAT3×100%.
Cell morphology. T cells (3×10^6 cells/ml) were seeded in flat-bottom, 24-well plates in 500 μl of RPMI on coverslips coated with FN (25 μg/ml). Some T cells were pretreated (1 hr, 37° C., in a 7.5% CO2 humidified atmosphere) with anti-TLRs mAb (20 μg/ml), and then with HSP60 (1 hr). After which, SDF-1α (200 ng/ml) was added, and the cells allowed to adhere (30 min, 37° C., in a 7.5% CO2 humidified atmosphere). The cells were then fixed in 3.7% paraformaldehyde and permeabilized (5 min, room temperature) with 0.5% TritonX-100. For actin visualization, cells were stained with rhodamine-labeled phalloidin (diluted 1/100), and examined with a laser-scanning confocal microscope (LSM510, Zeiss).

CD4^+CD25^+ T cells = assay: Co-culture of treated CD4+CD25+ T cells with CD4+CD25- T cells; assay type: cell-based, human
ConA-induced hepatitis = ConA-induced hepatitis (acute liver injury); assay type: in vivo, BALB/c mice
human T cells [2] = assay: Cytokine secretion of anti-CD3-activated purified human T cells
Description: Human T cells. T cells were purified from the peripheral blood of healthy human donors (Blood Bank; Tel-Hashomer, Israel). The whole blood was incubated (20 min, 22° C.) with RosetteSep™ human T-cell enrichment cocktail (StemCell Technologies, Vencouver, BC, Canada). The remaining unsedimented cells were then loaded onto Lymphocyte Separation Medium (ICN Biomedicals; Belgium), isolated by density centrifugation, and washed with PBS. The purified cells (>95% CD3^+ T cells) so obtained were cultured in RPMI containing antibiotics and 10% heat-inactivated FCS.
Cytokine secretion. T cells (2×10^6 cells per ml) were activated (1 hr, 37° C.) with the indicated concentrations of HSP60 in 24-well plates in RPMI containing 10% heat-inactivated FCS. The cells were then washed and re-plated at the same concentration on anti-CD3 mAb pre-coated 24-well plates (0.5 μg/ml; non tissue culture grade plates) in serum free medium containing 0.1% BSA at 4° C. for 24 hr. The supernatants were collected, and the cytokine content (TNF-α, IFN-γ, and IL-10) was determined by ELISA, using the appropriate mAb, according to the manufacturer's instructions.

[3] = human T cells, SDF-1α 100 ng/ml, 10 min
[4] = CD4+CD25+ treated 1 ng/ml 2 hr, co-cultured with CD4+CD25- on anti-CD3, 24 hr
[5] = i.p. 330 μl, 500 ng/ml, 18 and 1 hr prior to ConA, 24 hr after ConA

B1: HSP60: recombinant human heat shock protein 60 (StressGen Biotechnologies) (protein)
chain: AKDVKFGADARALMLQGVDLLADAVAVTMGPKGRTVIIEQSWGSPKVTKDGVTVAKSIDLKDKYKNIGAKLVQDVANNTNEEAGDGTTTATVLARSIAKEGFEKISKGANPVEIRRGVMLAVDAVIAELKKQSKPVTTPEEIAQVATISANGDKEIGNIISDAMKKVGRKGVITVKDGKTLNDELEIIEGMKFDRGYISPYFINTSKGQKCEFQDAYVLLSEKKISSIQSIVPALEIANAHRKPLVIIAEDVDGEALSTLVLNRLKVGLQVVAVKAPGFGDNRKNQLKDMAIATGGAVFGEEGLTLNLEDVQPHDLGKVGEVIVTKDDAMLLKGKGDKAQIEKRIQEIIEQLDVTTSEYEKEKLNERLAKLSDGVAVLKVGGTSDVEVNEKKDRVTDALNATRAAVEEGIVLGGGCALLRCIPALDSLTPANEDQKIGIEIIKRTLKIPAMTIAKNAGVEGSLIVEKIMQSSSEVGYDAMAGDFVNMVEKGIIDPTKVVRTALLDAAGVASLLTTAEVVVTEIPKEEKDPGMGAMGGMGGGMGGGMF
In the case of B1, the “homing of human T cells to the bone marrow” value (human T cells [1]) is reported as “significantly (P<0.05) decreased their homing to the bone marrow”, the SDF-1α-induced polarized morphology (ERK, Pyk2, AKT, MLC; FN-coated coverslips, HSP60 1 μg/ml) is reported as “inhibits” and the “SDF-1α-induced phosphorylation of MLC” value (ERK, Pyk2, AKT, MLC; HSP60 1 hr then SDF-1α 100 ng/ml, 10 min) is reported as “inhibits SDF-1α-induced phosphorylation of MLC”. For the same molecule, the “phosphorylation of MLC” value (ERK, Pyk2, AKT, MLC; HSP60 1 hr, no SDF-1α) was “induces phosphorylation of MLC”, the “SDF-1α-induced AKT phosphorylation” value (ERK, Pyk2, AKT, MLC; [3]) was “inhibits” and the “SDF-1α-induced ERK phosphorylation” value (ERK, Pyk2, AKT, MLC; [3]) was “inhibits”. For the same molecule, the “SDF-1α-induced Pyk2 phosphorylation” value (ERK, Pyk2, AKT, MLC; [3]) was “inhibits”, the “anti-CD3-induced proliferation of CD4+CD25- T cells in co-culture” value (CD4^+CD25^+ T cells; 24 hours) was “did not suppress anti-CD3-induced proliferation” and the “anti-CD3-induced proliferation of CD4+CD25- T cells in co-culture” value (CD4^+CD25^+ T cells; 96 hours) was “significant inhibition of proliferation”. The “IFN-γ and TNF-α secretion in co-culture” value (CD4^+CD25^+ T cells; [4]) was “significantly enhanced the down-regulation of secretion of IFN-γ and TNF-α secretion”, the “IL-10 and TGF-β secretion in co-culture” value (CD4^+CD25^+ T cells; [4]) was “up-regulated the secretion of IL-10 and TGF-β in the co-cultures” and the “inhibition of IFN-γ and TNF-α secretion of CD4+CD25- T cells by supernatants of treated Tregs” value (CD4^+CD25^+ T cells; HSP60 1 ng/ml, 2 hr, supernatants after 24 hr on anti-CD3) was “about 30%”. The “serum level of IL-6” value (ConA-induced hepatitis; 2 hr after ConA) was “to a lesser extent”, the “serum level of IL-10” value (ConA-induced hepatitis; 2 hr after ConA) was “increasing the level of IL-10” and the “serum level of TNF-α” value (ConA-induced hepatitis; 2 hr after ConA) was “reduced the levels of TNFα”. For the same molecule, the “histopathologic examination of liver sections” value (ConA-induced hepatitis; 24 hr after ConA) was “only minimal liver damage”, the “GATA-3 expression in splenic T cells” value (ConA-induced hepatitis; P<0.05) was “significantly augmenting the expression” and the “serum ALT” value (ConA-induced hepatitis; [5]) was “significantly (P≦0.05) inhibited the secretion of AST and ALT”. The “serum AST” value (ConA-induced hepatitis; [5]) was “significantly (P≦0.05) inhibited the secretion of AST and ALT”, the “SOCS3 expression in splenic T cells” value (ConA-induced hepatitis; mice treated with HSP60 only) was “became elevated following HSP60 treatment” and the “SOCS3 expression in splenic T cells” value (ConA-induced hepatitis; mice treated with both ConA and HSP60) was “even more elevated”. For the same molecule, the “ConA-induced T-bet expression in splenic T cells” value (ConA-induced hepatitis; mouse, in vivo) was “suppressed the ConA-induced expression”, the “effect on cytokine secretion at doses in the order of 10 ng/ml” value (human T cells [2]) was “did not appear to affect cytokine secretion” and the “secretion of IL-4 and IL-13” value (human T cells [2]) was “increases the secretion”. For the same molecule, the “cytokine secretion without anti-CD3” value (human T cells [2]; HSP60 alone) was “did not induce cytokine secretion from the T cells”, the “higher concentrations at which cytokine secretion was again affected” value (human T cells [2]; P<0.05) was 0.1 to 1 µg/mL and the “low concentrations with significant effects on cytokine secretion” value (human T cells [2]; P<0.05) was 0.1 to 1.0 ng/mL.
